Experimental data taken from patent US20110301332A1 (CEPHALON AUSTRALIA VIC, published 2011).
No end group written: not given here.

T1: biotinylated human PAMP (biotinylated to an added N-terminal cysteine) (human, not fully specified; biotin on the added N-terminal cysteine; C-terminal amide)
T1 construct: also called biotin-PAMP; biotinylated human full-length PAMP
T1 peptide: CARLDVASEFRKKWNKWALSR

B1: human PAMP (12-20) (peptide)
peptide: KWNKWALSR
modifications: not fully specified (C-terminus); ends and bridges not checked
notes: also called N-terminally truncated human PAMP, residues 12-20
B2: native (non-biotinylated) human PAMP (peptide)
peptide: ARLDVASEFRKKWNKWALSR-NH2
notes: also called human full length PAMP; hum FL
B3: human PAMP (13-20) (peptide)
peptide: WNKWALSR
modifications: ends and bridges not checked
notes: also called N-terminally truncated human PAMP, residues 13-20; C-terminal-most 8 residues of PAMP
B4: human PAMP (8-20) (peptide)
peptide: EFRKKWNKWALSR
modifications: ends and bridges not checked
notes: also called N-terminally truncated human PAMP, residues 8-20
B5: monoclonal antibody EGX-P-E9 (antibody, V domains shown)
VH: EVQLQQSGAELVRSGASVKLSCTASGFNIKDYYIHWVKQGPEQGLEWVGYIDPENGETAYAPKFQGKATLTADTSSNTAYLQLISLTSEDTAVYYCNAPYFSLGRNYWGQGTTLTVSS
VL: NVLMTQTPLSLPVSLGDQASISCRSSQSIVHGNGDTYLEWYLQKPGQSPKLLIYKVSNRFSGVPDRFSGSGSGTDFTLKIRRVEAEDLGVYYCFQGSHVPLTFGAGTKLELK
notes: Mouse IgG purified from hybridoma medium with Protein G; also called anti-PAMP EGX-P-E9 IgG; antibody of hybridoma clone PTA-7958
B6: human PAMP (10-20) (peptide)
peptide: RKKWNKWALSR
modifications: ends and bridges not checked
notes: also called N-terminally truncated human PAMP, residues 10-20

How the values were obtained:
[1] = target: B5; experiment: competitive ELISA: EGX-P-E9-coated wells, 10 nM biotinylated human full-length PAMP plus 1 µM (100x) unlabeled competitor peptide, streptavidin-peroxidase, OD
Experimental: (§1) The activity of the purified monoclonal antibody EGX-P-E9 was examined by ELISA (Enzyme Linked Immunosorbent Assay, FIG. 1). Wells of a 96-well microtiter plate were coated with 5 μg/ml anti-PAMP EGX-P-E9 IgG diluted in PBS for several hours. After washing wells with PBS, the coated wells were then incubated with a skim milk-PBS solution (Milk/PBS) to block non-specific antigen-binding. To determine the EC50, an estimate of the dissociation constant, various concentration (12 μM to 2 μM in Milk/PBS) of biothinylated human PAMP (biotinylated to an added N-terminal cysteine) was incubated in EGX-P-E9-coated wells. After washing wells with PBS+0.05% Tween 20 (PBST), the EGX-P-E9-biotin-PAMP complex was captured by the streptavidin-peroxidase conjugate and quantified by measuring the A450 using the peroxidase substrate TMB fluorescent reagent (Sigma Aldrich) and Benchmark microplate reader (BioRad).
The specificity of anti-PAMP EGX-P-E9 was also tested by ELISA with competitor PAMP peptides (FIG. 2). Antibody EGX-P-E9-coated wells were loaded with 10 nM biotinylated human full-length PAMP in Milk/PBS supplemented with one hundred fold excess (1 μM) of the following unlabeled competitor PAMP peptides: Rat PAMP, mouse PAMP, human full length PAMP (hum FL), and various N-terminally truncated human PAMPs (containing only residues 8-20, 10-20, 12-20 or 13-20). Quantification of the EGX-P-E9-biotin-PAMP complex was done as described above.

[2] = target: B5; experiment: competition ELISA, non-biotinylated PAMP against 6.2 nM biotinylated PAMP on EGX-P-E9-coated wells
Experimental: as §1
To confirm the affinity for PAMP, IC50 values were determined by competing the binding of the EGX-P-E9 antibody to the biotinylated PAMP with native (non-biotinylated) human PAMP. […] After washing the wells with PBST, the EGX-P-E9-biotin-PAMP complex was detected using the streptavidin-peroxidase conjugate and quantified by measuring the A450 using the peroxidase substrate TMB fluorescent reagent (Sigma Aldrich) and Benchmark microplate reader (BioRad) as above.

human PAMP (13-20) = target: B3; experiment: competition ELISA with truncated PAMP peptides
Experimental: as §1
The specificity of anti-PAMP EGX-P-E9 was also tested by ELISA with competitor PAMP peptides (FIG. 2). […] Quantification of the EGX-P-E9-biotin-PAMP complex was done as described above.

[3] = target: T1, biotinylated human PAMP (biotinylated …); experiment: ELISA, antibody-coated wells, titration of biotinylated human PAMP, streptavidin-peroxidase detection
Experimental: as §1

binding result [1] | Binder | further results
binds | B1 | –
– | B2 | IC50 [2]: 4 nM
binds | B3 | –
binds | B4 | –
binds | ARLDTSSQFRKKWNKWALSR-NH2 [Rat PAMP] | –
– | B5 | binding result (human PAMP (13-20)): binds; EC50 [3]: 6.2 nM
binds | B6 | –
binds | AGPDTPSQFRKKWNKWALSR-NH2 [mouse PAMP] | –
